Measurements published in patent US20200283502A1 (PEPTICOM LTD., priority 2017, published 2020).
Where a SMILES comes first, the peptide text is derived from it. Where no end group is shown, it is not given here. [ ]: non-standard residue; d: D form. His(π-Me) = Cn1cncc1C[C@H](N)C(=O)O; NMeT = CN[C@H](C(=O)O)[C@@H](C)O; Cha = N[C@@H](CC1CCCCC1)C(=O)O

Biological target: T1, human GABA receptor (subunits α1β3γ2) (Homo sapiens, UniProt P14867+P28472)
T1 construct: expressed in transfected cells; host or cells: HEK293
Experiment: manual whole-cell patch-clamp of GABA receptor-mediated Cl− current in HEK293 cells
Assay type: cell-based
Conditions: for Activity: human α1β3γ2 GABAA receptor, electrophysiological recordings; for potentiation of human GABA receptor-mediated Cl− current: receptor expressed in HEK293 cells, manual whole-cell patch-clamp
Experimental: All the compounds of the present invention were tested and validated using electrophysiological recordings on the human GABAA receptor comprising of the following subunits α1β3γ2.
The peptides of the present invention are capable of activating, inhibiting or modulating the GABAA receptor. These peptides were derived in-silico and tested in-vitro in cell cultures. […] The human GABA receptor (subunits α1β3γ2) used in these experiments was expressed in HEK293 cells in manual whole-cell patch-clamp settings.

T1 sequence (P14867 28-456): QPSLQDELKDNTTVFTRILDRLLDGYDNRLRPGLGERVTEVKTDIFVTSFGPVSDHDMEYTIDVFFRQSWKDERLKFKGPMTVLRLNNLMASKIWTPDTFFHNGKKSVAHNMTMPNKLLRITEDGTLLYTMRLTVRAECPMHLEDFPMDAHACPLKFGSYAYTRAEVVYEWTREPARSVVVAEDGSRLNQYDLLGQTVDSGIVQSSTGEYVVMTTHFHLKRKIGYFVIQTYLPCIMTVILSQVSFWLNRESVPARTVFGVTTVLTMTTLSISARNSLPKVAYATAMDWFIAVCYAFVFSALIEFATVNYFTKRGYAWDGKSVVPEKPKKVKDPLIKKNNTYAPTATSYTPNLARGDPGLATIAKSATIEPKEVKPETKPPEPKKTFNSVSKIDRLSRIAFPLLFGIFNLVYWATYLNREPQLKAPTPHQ
T1 sequence (P28472 26-473): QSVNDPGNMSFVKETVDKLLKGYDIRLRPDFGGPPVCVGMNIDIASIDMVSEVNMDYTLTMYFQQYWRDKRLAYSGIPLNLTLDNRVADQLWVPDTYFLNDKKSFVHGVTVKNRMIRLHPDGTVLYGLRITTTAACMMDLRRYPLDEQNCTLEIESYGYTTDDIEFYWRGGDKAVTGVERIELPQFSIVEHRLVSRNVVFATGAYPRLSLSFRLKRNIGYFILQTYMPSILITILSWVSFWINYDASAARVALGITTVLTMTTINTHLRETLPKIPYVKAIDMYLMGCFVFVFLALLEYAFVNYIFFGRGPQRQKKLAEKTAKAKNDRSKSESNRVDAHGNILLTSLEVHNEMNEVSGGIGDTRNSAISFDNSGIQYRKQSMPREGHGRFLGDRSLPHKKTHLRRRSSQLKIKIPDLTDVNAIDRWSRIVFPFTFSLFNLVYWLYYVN
T1 sequence (P18507 40-475 partner): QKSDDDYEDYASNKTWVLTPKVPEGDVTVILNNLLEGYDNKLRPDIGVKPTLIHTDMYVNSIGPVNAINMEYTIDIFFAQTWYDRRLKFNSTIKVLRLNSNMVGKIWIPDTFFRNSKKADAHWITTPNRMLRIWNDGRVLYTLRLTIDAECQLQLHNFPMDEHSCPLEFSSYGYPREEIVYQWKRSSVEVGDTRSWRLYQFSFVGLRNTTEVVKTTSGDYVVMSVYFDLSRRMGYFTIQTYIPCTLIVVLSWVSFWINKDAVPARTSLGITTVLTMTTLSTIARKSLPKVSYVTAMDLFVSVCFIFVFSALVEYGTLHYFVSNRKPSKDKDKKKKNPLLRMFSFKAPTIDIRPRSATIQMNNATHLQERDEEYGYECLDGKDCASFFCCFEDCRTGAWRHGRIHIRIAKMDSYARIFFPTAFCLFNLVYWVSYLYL

Row | Molecule | Activity | potentiation of human GABA receptor-mediated Cl− current
1 | His—Pro—Pro—Ala—Thr (HPPAT; printed: His—Pro—Pro—Ala—Thr) [SEQ ID NO:8] | Positive allosteric modulator | selective potentiation
2 | C[C@@H](O)[C@@H](C(=O)N[C@H](Cc1c[nH]c2ccccc12)C(=O)N[C@@H](CCC(N)=O)C(=O)N[C@H](C=O)CCC(=O)O)N(C)C(=O)[C@@H](N)Cc1cncn1C [SEQ ID NO:4, (3-methyl-L-histidine)-(N-methyl-threonine)-(N-methyl-tryptophan)-QE] (H-[His(π-Me)][NMeT][dW]QE-aldehyde) | Positive allosteric modulator | selective potentiation
3 | His—Thr—Trp—Gln—Glu (HTWQE; printed: His—Thr—Trp—Gln—Glu) [SEQ ID NO:1] | Positive allosteric modulator | selective potentiation
4 | His—Thr—Thr—Gly—Asp (HTTGD; printed: His—Thr—Thr—Gly—Asp) [SEQ ID NO:12] | Positive allosteric modulator | selective potentiation
5 | C[C@@H](O)[C@H](NC(=O)[C@@H](N)CC1CCCCC1)C(=O)N[C@@H](Cc1c[nH]c2ccccc12)C(=O)N[C@@H](CCC(N)=O)C(=O)N[C@H](C=O)CCC(=O)O [SEQ ID NO:2, (L-cyclohexyl-alanine)- TWQE] (H-[Cha]TWQE-aldehyde) | Positive allosteric modulator | selective potentiation
6 | Arg—Phe—His—Ser (RFHS; printed: Arg—Phe—His—Ser) [SEQ ID NO:10] | Positive allosteric modulator | selective potentiation
7 | Arg—Thr—Trp—Gly—Glu (RTWGE; printed: Arg—Thr—Trp—Gly—Glu) [SEQ ID NO:13] |  | selective potentiation
8 | His—Thr—Trp—Pro (HTWP; printed: His—Thr—Trp—Pro) [SEQ ID NO:14] | Positive allosteric modulator | selective potentiation
9 | C[C@@H](O)[C@@H](C(=O)N[C@@H](Cc1c[nH]c2ccccc12)C(=O)N[C@@H](CCC(N)=O)C(=O)N[C@H](C=O)CCC(=O)O)N(C)C(=O)[C@@H](N)Cc1cncn1C [SEQ ID NO:3, (3-methyl-L-histidine)-(N-methyl-threonine)-WQE] (H-[His(π-Me)][NMeT]WQE-aldehyde) | Positive allosteric modulator | selective potentiation
10 | His—Ile—Ser—NH2 [SEQ ID NO:9] | Positive allosteric modulator | selective potentiation
11 | His—Thr—Trp—Tyr—Glu (HTWYE; printed: His—Thr—Trp—Tyr—Glu) [SEQ ID NO:7] | Positive allosteric modulator | selective potentiation
12 | His—Thr—Trp—Lys—Lys (HTWKK; printed: His—Thr—Trp—Lys—Lys) [SEQ ID NO:6] | Positive allosteric modulator | selective potentiation
13 | His—Pro—Trp—Gln (HPWQ; printed: His—Pro—Trp—Gln) [SEQ ID NO:15] | Positive allosteric modulator | selective potentiation
14 | Thr—Glu—Ser—Lys—Gly—NH2 (TESKG-NH2) [SEQ ID NO:11] | Positive allosteric modulator | selective potentiation
